Test results taken from the supplement of paper PMC5998384.

What was measured:
HeLa Kyoto [1] = test: solubility in G1/S (NP-40 vs SDS abundance) (log2 ratio); higher = more soluble; details: cell cycle stage: G1/S
HeLa Kyoto [2] = test: solubility change mitosis vs G1/S (difference of NP-40 vs SDS log2 ratios) (log2 ratio difference); higher = more soluble in mitosis
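Wherever solubility change mitosis vs G1/S (difference of NP-40 vs SDS log2 ratios) is given: synchronized HeLa Kyoto cells (double thymidine block for G1/S, nocodazole release for mitosis), protein amounts in NP-40 versus SDS lysates quantified by mass spectrometry, three biological replicates.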
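Wherever solubility in G1/S (NP-40 vs SDS abundance) is given: HeLa Kyoto cells arrested at G1/S by double thymidine block, proteins quantified by TMT10plex mass spectrometry in mild NP-40 versus SDS extracts, three biological replicates.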

Sequence | solubility in G1/S (log2) (HeLa Kyoto [1]) | solubility change mitosis (log2) (HeLa Kyoto [2])
MAAAAEERMAEEGGGGQGDGGSSLASGSTQRQPPPPAPQHPQPGSQALPAPALAPDQLPQNNTLVALPIVAIENILSFMSYDEISQLRLVCKRMDLVCQRMLNQGFLKVERYHNLCQKQVKAQLPRRESERRNHSLARHADILAAVETRLSLLNMTFMKYVDSNLCCFIPGKVIDEIYRVLRYVNSTRAPQRAHEVLQELRDISSMAMEYFDEKIVPILKRKLPGSDVSGRLMGSPPVPGPSAALTTMQLFSKQNPSRQEVTKLQQQVKTNGAGVTVLRREISELRTKVQEQQKQLQDQDQKLLEQTQIIGEQNARLAELERKLREVMESAVGNSSGSGQNEESPRKRKKATEAIDSLRKSKRLRNRK [FBXO28] | 0.375 | 0.262
MAAANPWDPASAPNGAGLVLGHFIASGMVNQEMLNMSKKTVSCFVNFTRLQQITNIQAEIYQKNLEIELLKLEKDTADVVHPFFLAQKCHTLQSMNNHLEAVLKEKRSLRQRLLKPMCQENLPIEAVYHRYMVHLLELAVTFIERLETHLETIRNIPHLAANLKKMNQALAKMDILVTETEELAENILKWRKQQNEVSSCIPKILAEESYLYKHDIIMPPLPFTSKVHVQTINAK [HAUS2] | 0.261 | -0.117
MAAAVAAPLAAGGEEAAATTSVPGSPGLPGRRSAERALEEAVATGTLNLSNRRLKHFPRGAARSYDLSDITQADLSRNRFPEVPEAACQLVSLEGLSLYHNCLRCLNPALGNLTALTYLNLSRNQLSLLPPYICQLPLRVLIVSNNKLGALPPDIGTLGSLRQLDVSSNELQSLPSELCGLSSLRDLNVRRNQLSTLPEELGDLPLVRLDFSCNRVSRIPVSFCRLRHLQVILLDSNPLQSPPAQVCLKGKLHIFKYLSTEAGQRGSALGDLAPSRPPSFSPCPAEDLFPGHRYDGGLDSGFHSVDSGSKRWSGNESTDEFSELSFRISELAREPRGPRERKEDGSADGDPVQIDFIDSHVPGEDEERGTVEEQRPPELSPGAGDRERAPSSRREEPAGEERRRPDTLQLWQERERRQQQQSGAWGAPRKDSLLKPGLRAVVGGAAAVSTQAMHNGSPKSSASQAGAAAGQGAPAPAPASQEPLPIAGPATAPAPRPLGSIQRPNSFLFRSSSQSGSGPSSPDSVLRPRRYPQVPDEKDLMTQLRQVLESRLQRPLPEDLAEALASGVILCQLANQLRPRSVPFIHVPSPAVPKLSALKARKNVESFLEACRKMGVPEADLCSPSDLLQGTARGLRTALEAVKRVGGKALPPLWPPSGLGGFVVFYVVLMLLLYVTYTRLLGS [LRCH4] | 0.302 | -0.305
MAAEEVLQTVDHYKTEIERLTKELTETTHEKIQAAEYGLVVLEEKLTLKQQYDELEAEYDSLKQELEQLKEAFGQSFSIHRKVAEDGETREETLLQESASKEAYYLGKILEMQNELKQSRAVVTNVQAENERLTAVVQDLKENNEMVELQRIRMKDEIREYKFREARLLQDYTELEEENITLQKLVSTLKQNQVEYEGLKHEIKRFEEETVLLNSQLEDAIRLKEIAEHQLEEALETLKNEREQKNNLRKELSQYISLNDNHISISVDGLKFAEDGSEPNNDDKMNGHIHGPLVKLNGDYRTPTLRKGESLNPVSDLFSELNISEIQKLKQQLMQVEREKAILLANLQESQTQLEHTKGALTEQHERVHRLTEHVNAMRGLQSSKELKAELDGEKGRDSGEEAHDYEVDINGLEILECKYRVAVTEVIDLKAEIKALKEKYNKSVENYTDEKAKYESKIQMYDEQVTSLEKTTKESGEKMAHMEKELQKMTSIANENHSTLNTAQDELVTFSEELAQLYHHVCLCNNETPNRVMLDYYRQSRVTRSGSLKGPDDPRGLLSPRLARRGVSSPVETRTSSEPVAKESTEASKEPSPTKTPTISPVITAPPSSPVLDTSDIRKEPMNIYNLNAIIRDQIKHLQKAVDRSLQLSRQRAAARELAPMIDKDKEALMEEILKLKSLLSTKREQIATLRAVLKANKQTAEVALANLKNKYENEKAMVTETMTKLRNELKALKEDAATFSSLRAMFATRCDEYVTQLDEMQRQLAAAEDEKKTLNTLLRMAIQQKLALTQRLEDLEFDHEQSRRSKGKLGKSKIGSPKVSGEASVTVPTIDTYLLHSQGPQTPNIRVSSGTQRKRQFSPSLCDQSRPRTSGASYLQNLLRVPPDPTSTESFLLKGPPSMSEFIQGHRLSKEKRLTVAPPDCQQPAASVPPQCSQLAGRQDCPTVSPDTALPEEQPHSSSQCAPLHCLSKPPHP [BICD1] | 0.652 | -0.259
MAAGCCGVKKQKLSSSPPSGSGGGGGASSSSHCSGESQCRAGELGLGGAGTRLNGLGGLTGGGSGSGCTLSPPQGCGGGGGGIALSPPPSCGVGTLLSTPAAATSSSPSSSSAASSSSPGSRKMVVSAEMCCFCFDVLYCHLYGYQQPRTPRFTNEPYPLFVTWKIGRDKRLRGCIGTFSAMNLHSGLREYTLTSALKDSRFPPMTRDELPRLFCSVSLLTNFEDVCDYLDWEVGVHGIRIEFINEKGSKRTATYLPEVAKEQGWDHIQTIDSLLRKGGYKAPITNEFRKTIKLTRYRSEKMTLSYAEYLAHRQHHHFQNGIGHPLPPYNHYS [AMMECR1] | 0.255 | -0.37
MAANSSGQGFQNKNRVAILAELDKEKRKLLMQNQSSTNHPGASIALSRPSLNKDFRDHAEQQHIAAQQKAALQHAHAHSSGYFITQDSAFGNLILPVLPRLDPE [INIP] | -0.135 | 0.407
MAAPCLLRQGRAGALKTMLQEAQVFRGLASTVSLSAESGKSEKGQPQNSKKQSPPKKPAPVPAEPFDNTTYKNLQHHDYSTYTFLDLNLELSKFRMPQPSSGRESPRH [NDUFV3] | 0.224 | -0.0477
MAAQAAAAAQAAAAQAAQAEAADSWYLALLGFAEHFRTSSPPKIRLCVHCLQAVFPFKPPQRIEARTHLQLGSVLYHHTKNSEQARSHLEKAWLISQQIPQFEDVKFEAASLLSELYCQENSVDAAKPLLRKAIQISQQTPYWHCRLLFQLAQLHTLEKDLVSACDLLGVGAEYARVVGSEYTRALFLLSKGMLLLMERKLQEVHPLLTLCGQIVENWQGNPIQKESLRVFFLVLQVTHYLDAGQVKSVKPCLKQLQQCIQTISTLHDDEILPSNPADLFHWLPKEHMCVLVYLVTVMHSMQAGYLEKAQKYTDKALMQLEKLKMLDCSPILSSFQVILLEHIIMCRLVTGHKATALQEISQVCQLCQQSPRLFSNHAAQLHTLLGLYCVSVNCMDNAEAQFTTALRLTNHQELWAFIVTNLASVYIREGNRHQEVLYSLLERINPDHSFPVSSHCLRAAAFYVRGLFSFFQGRYNEAKRFLRETLKMSNAEDLNRLTACSLVLLGHIFYVLGNHRESNNMVVPAMQLASKIPDMSVQLWSSALLRDLNKACGNAMDAHEAAQMHQNFSQQLLQDHIEACSLPEHNLITWTDGPPPVQFQAQNGPNTSLASLL [MAU2] | -0.154 | -0.0035
MAATDIARQVGEGCRTVPLAGHVGFDSLPDQLVNKSVSQGFCFNILCVGETGLGKSTLMDTLFNTKFEGEPATHTQPGVQLQSNTYDLQESNVRLKLTIVSTVGFGDQINKEDSYKPIVEFIDAQFEAYLQEELKIRRVLHTYHDSRIHVCLYFIAPTGHSLKSLDLVTMKKLDSKVNIIPIIAKADAISKSELTKFKIKITSELVSNGVQIYQFPTDDESVAEINGTMNAHLPFAVIGSTEELKIGNKMMRARQYPWGTVQVENEAHCDFVKLREMLIRVNMEDLREQTHTRHYELYRRCKLEEMGFKDTDPDSKPFSLQETYEAKRNEFLGELQKKEEEMRQMFVQRVKEKEAELKEAEKELHEKFDRLKKLHQDEKKKLEDKKKSLDDEVNAFKQRKTAAELLQSQGSQAGGSQTLKRDKEKKNNPWLCTE [SEPT6] | 0.186 | -0.0909
MAATDLERFSNAEPEPRSLSLGGHVGFDSLPDQLVSKSVTQGFSFNILCVGETGIGKSTLMNTLFNTTFETEEASHHEACVRLRPQTYDLQESNVQLKLTIVDAVGFGDQINKDESYRPIVDYIDAQFENYLQEELKIRRSLFDYHDTRIHVCLYFITPTGHSLKSLDLVTMKKLDSKVNIIPIIAKADTISKSELHKFKIKIMGELVSNGVQIYQFPTDDEAVAEINAVMNAHLPFAVVGSTEEVKVGNKLVRARQYPWGVVQVENENHCDFVKLREMLIRVNMEDLREQTHSRHYELYRRCKLEEMGFQDSDGDSQPFSLQETYEAKRKEFLSELQRKEEEMRQMFVNKVKETELELKEKERELHEKFEHLKRVHQEEKRKVEEKRRELEEETNAFNRRKAAVEALQSQALHATSQQPLRKDKDKKNRSDIGAHQPGMSLSSSKVMMTKASVEPLNCSSWWPAIQCCSCLVRDATWREGFL [SEPT8] | -0.0316 | -0.0125
MACSLQKLFAVEEEFEDEDFLSAVEDAENRFTGSLPVNAGRLRPVSSRPQETVQAQSSRLLLLHPTAPSEALGLPDLDLCLPASSTPSADSRPSCIGAAPLRPVSTSSSWIGNQRRVTVTEVLRETARPQSSALHPLLTFESQQQQVGGFEGPEQDEFDKVLASMELEEPGMELECGVSSEAIPILPAQQREGSVLAKKARVVDLSGSCQKGPVPAIHKAGIMSAQDESLDPVIQCRTPRPPLRPGAVGHLPVPTALTVPTQQLHWEVCPQRSPVQALQPLQAARGTIQSSPQNRFPCQPFQSPSSWLSGKAHLPRPRTPNSSCSTPSRTSSGLFPRIPLQPQAPVSSIGSPVGTPKGPQGALQTPIVTNHLVQLVTAASRTPQQPTHPSTRAKTRRFPGPAGILPHQQSGRSLEDIMVSAPQTPTHGALAKFQTEIVASSQASVEEDFGRGPWLTMKSTLGLDERDPSCFLCTYSIVMVLRKQAALKQLPRNKVPNMAVMIKSLTRSTMDASVVFKDPTGEMQGTVHRLLLETCQNELKPGSVLLLKQIGVFSPSLRNHYLNVTPNNLVHIYSPDSGDGSFLKPSQPFPKDSGSFQHDVAAKPEEGFRTAQNLEAEASPEEELPEADDLDGLLSELPEDFFCGTSS [C17ORF53] | 0.384 | 0.0975
MADLHRQLQEYLAQGKAGGPAAAEPLLAAEKAEEPGDRPAEEWLGRAGLRWTWARSPAESAAAGLTCLPSVTRGQRLAAGGGCLLLAALCFGLAALYAPVLLLRARKFALLWSLGSALALAGSALLRGGAACGRLLRCEEAPSRPALLYMAALGATLFAALGLRSTLLTVLGAGAQVAALLAALVGLLPWGGGTALRLALGRLGRGAGLAKVLPV [SFT2D3] | -0.165 | -0.136
MAEGDAGSDQRQNEEIEAMAAIYGEEWCVIDDCAKIFCIRISDDIDDPKWTLCLQVMLPNEYPGTAPPIYQLNAPWLKGQERADLSNSLEEIYIQNIGESILYLWVEKIRDVLIQKSQMTEPGPDVKKKTEEEDVECEDDLILACQPESSLKALDFDISETRTEVEVEELPPIDHGIPITDRRSTFQAHLAPVVCPKQVKMVLSKLYENKKIASATHNIYAYRIYCEDKQTFLQDCEDDGETAAGGRLLHLMEILNVKNVMVVVSRWYGGILLGPDRFKHINNCARNILVEKNYTNSPEESSKALGKNKKVRKDKKRNEH [IMPACT] | 0.0693 | 0.00643
MAEGEGYFAMSEDELACSPYIPLGGDFGGGDFGGGDFGGGDFGGGGSFGGHCLDYCESPTAHCNVLNWEQVQRLDGILSETIPIHGRGNFPTLELQPSLIVKVVRRRLAEKRIGVRDVRLNGSAASHVLHQDSGLGYKDLDLIFCADLRGEGEFQTVKDVVLDCLLDFLPEGVNKEKITPLTLKEAYVQKMVKVCNDSDRWSLISLSNNSGKNVELKFVDSLRRQFEFSVDSFQIKLDSLLLFYECSENPMTETFHPTIIGESVYGDFQEAFDHLCNKIIATRNPEEIRGGGLLKYCNLLVRGFRPASDEIKTLQRYMCSRFFIDFSDIGEQQRKLESYLQNHFVGLEDRKYEYLMTLHGVVNESTVCLMGHERRQTLNLITMLAIRVLADQNVIPNVANVTCYYQPAPYVADANFSNYYIAQVQPVFTCQQQTYSTWLPCN [FAM46A] | -0.00125 | -0.172
